± gives the standard deviation of the averaged measurements.
B1: library; a variant is named by its letters at N, in order (parent)
chain: GCUGUCACCGGUGUAUUACCCUAGUGGUCGACCGGUCUGAUGAGUCUNNNNNNAGACGAAACAGC

What was measured:
hypoxanthine [1] = variants of: B1; assay: FACS-Seq fitted mean relative fluorescence mCherry/BFP without ligand (log10 relative fluorescence); ligand: hypoxanthine (xanthine aptamer); higher = higher reporter protein expression; conditions: HEK293T, ligand present: no
In short: (§1)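 After lentiviral transduction, HEK293T library cells bearing an mCherry ribozyme-switch reporter and an EF1α-BFP marker were enriched. They were then held for 48 h with or without ligand and sorted by mCherry/BFP into 6 bins, and each bin's genomic DNA was PCR-amplified, barcoded and MiSeq-sequenced. Fluorescence is expressed as a normalized fitted mean: the normal mean of log10(mCherry/BFP) bin counts, scaled to five spiked-in control ribozymes.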

hypoxanthine [2] = variants of: B1; assay: normalized RNA/DNA level with ligand (relative to sTRSVctl = 100) (log10 (% of sTRSVctl)); ligand: hypoxanthine (xanthine aptamer); higher = less ribozyme self-cleavage, higher mRNA level; conditions: ligand concentration (+) RNA-Seq: 5 mM, HEK293T, reporter: mCherry (pCS4076), ligand present: yes
Description: (§2)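 Hammerhead (sTRSV) ribozyme switch libraries with a ligand aptamer grafted on stem I and a randomized N4-6 loop II, cloned into the 3' UTR of mCherry and transiently transfected into HEK293T cells; RNA-Seq 72 h post transfection with ligand added 1 h before transfection; RNA read count / plasmid DNA read count normalized to the non-cleaving sTRSVctl (x100), log10; sequences with >100 DNA reads. FACS-Seq: lentiviral library sorted into 6 bins after 48 h ligand, log-normal fit mean of mCherry/BFP scaled to controls. Printed sequences are partial switch sequences.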

hypoxanthine [3] = variants of: B1; assay: normalized RNA/DNA level without ligand (relative to sTRSVctl = 100) (log10 (% of sTRSVctl)); ligand: hypoxanthine (xanthine aptamer); higher = less ribozyme self-cleavage, higher mRNA level; conditions: HEK293T, reporter: mCherry (pCS4076), ligand present: no
Description: as §2

hypoxanthine [4] = variants of: B1; assay: FACS-Seq fitted mean relative fluorescence mCherry/BFP with ligand (log10 relative fluorescence); ligand: hypoxanthine (xanthine aptamer); ligand concentration (+) FACS-Seq: 5 mM; higher = higher reporter protein expression; conditions: HEK293T, ligand present: yes
In short: as §1

Variant | FACS-Seq fitted mean (log10) (hypoxanthine [1]) | normalized RNA/DNA level with ligand (log10) (hypoxanthine [2]) | normalized RNA/DNA level without ligand (log10) (hypoxanthine [3]) | FACS-Seq fitted mean (log10) (hypoxanthine [4])
GCUGUCACCGGUGUAUUACCCUAGUGGUCGACCGGUCUGAUGAGUCUAACUCGAGACGAAACAGC | 0.382 ± 0.056 | 1.92 ± 0.033 | 1.582 ± 0.0054 | 0.644 ± 0.022
GCUGUCACCGGUGUAUUACCCUAGUGGUCGACCGGUCUGAUGAGUCUUACUAAAGACGAAACAGC | 0.00308 ± 0.026 | 1.91 ± 0.023 | 1.8 ± 0.025 | 0.206 ± 0.073
GCUGUCACCGGUGUAUUACCCUAGUGGUCGACCGGUCUGAUGAGUCUUACUAGAGACGAAACAGC | 0.177 ± 0.053 | 1.9142 ± 0.0014 | 1.65 ± 0.033 | 0.506 ± 0.038
GCUGUCACCGGUGUAUUACCCUAGUGGUCGACCGGUCUGAUGAGUCUCACUAAAGACGAAACAGC | 0.376 ± 0.014 | 1.8618 ± 0.00057 | 1.74 ± 0.025 | 0.456 ± 0.0093
GCUGUCACCGGUGUAUUACCCUAGUGGUCGACCGGUCUGAUGAGUCUUACGGGAGACGAAACAGC | 0.0501 ± 0.0033 | 1.928 ± 0.0024 | 1.509 ± 0.013 | 0.553 ± 0.062
GCUGUCACCGGUGUAUUACCCUAGUGGUCGACCGGUCUGAUGAGUCUUACGGCAGACGAAACAGC | 0.35 ± 0.0036 | 1.95 ± 0.0066 | 1.795 ± 0.0028 | 0.542 ± 0.1
GCUGUCACCGGUGUAUUACCCUAGUGGUCGACCGGUCUGAUGAGUCUGACUAAAGACGAAACAGC | 0.354 ± 0.073 | 1.89 ± 0.027 | 1.796 ± 0.0046 | 0.515 ± 0.01
GCUGUCACCGGUGUAUUACCCUAGUGGUCGACCGGUCUGAUGAGUCUGACUAUAGACGAAACAGC | 0.185 ± 0.051 | 1.92 ± 0.077 | 1.829 ± 0.016 | 0.377 ± 0.004
GCUGUCACCGGUGUAUUACCCUAGUGGUCGACCGGUCUGAUGAGUCUCACGUAAGACGAAACAGC | 0.4515 ± 0.0024 | 1.9 ± 0.016 | 1.784 ± 0.0067 | 0.594 ± 0.022
GCUGUCACCGGUGUAUUACCCUAGUGGUCGACCGGUCUGAUGAGUCUUACUCAAGACGAAACAGC | 0.0121 ± 0.031 | 1.95 ± 0.029 | 1.907 ± 0.0097 | 0.0228 ± 0.0046
GCUGUCACCGGUGUAUUACCCUAGUGGUCGACCGGUCUGAUGAGUCUAACUAUAGACGAAACAGC | 0.469 ± 0.04 | 1.9 ± 0.041 | 1.787 ± 0.012 | 0.51 ± 0.053
GCUGUCACCGGUGUAUUACCCUAGUGGUCGACCGGUCUGAUGAGUCUAACUAGAGACGAAACAGC | 0.232 ± 0.032 | 1.819 ± 0.011 | 1.473 ± 0.0054 | 0.521 ± 0.045
GCUGUCACCGGUGUAUUACCCUAGUGGUCGACCGGUCUGAUGAGUCUAACUAAAGACGAAACAGC | 0.536 ± 0.12 | 1.937 ± 0.014 | 1.81 ± 0.035 | 0.663 ± 0.043
GCUGUCACCGGUGUAUUACCCUAGUGGUCGACCGGUCUGAUGAGUCUAACUACAGACGAAACAGC | 0.621 ± 0.011 | 1.922 ± 0.014 | 1.841 ± 0.0075 | 0.653 ± 0.028
GCUGUCACCGGUGUAUUACCCUAGUGGUCGACCGGUCUGAUGAGUCUGACGUUAGACGAAACAGC | 0.455 ± 0.066 | 1.9 ± 0.044 | 1.853 ± 0.0023 | 0.575 ± 0.066
GCUGUCACCGGUGUAUUACCCUAGUGGUCGACCGGUCUGAUGAGUCUAACGUCAGACGAAACAGC | 0.221 ± 0.029 | 2.01 ± 0.052 | 1.949 ± 0.0078 | 0.255 ± 0.0059
GCUGUCACCGGUGUAUUACCCUAGUGGUCGACCGGUCUGAUGAGUCUAACGUAAGACGAAACAGC | 0.494 ± 0.032 | 1.86 ± 0.058 | 1.702 ± 0.0047 | 0.516 ± 0.1
GCUGUCACCGGUGUAUUACCCUAGUGGUCGACCGGUCUGAUGAGUCUAACGUGAGACGAAACAGC | 0.285 ± 0.021 | 1.817 ± 0.013 | 1.3 ± 0.041 | 0.737 ± 0.012
GCUGUCACCGGUGUAUUACCCUAGUGGUCGACCGGUCUGAUGAGUCUCACGGUAGACGAAACAGC | 0.663 ± 0.025 | 1.869 ± 0.0027 | 1.758 ± 0.0045 | 0.669 ± 0.15
GCUGUCACCGGUGUAUUACCCUAGUGGUCGACCGGUCUGAUGAGUCUAACGGUAGACGAAACAGC | 0.118 ± 0.036 | 1.88 ± 0.034 | 1.577 ± 0.01 | 0.3457 ± 0.0031
GCUGUCACCGGUGUAUUACCCUAGUGGUCGACCGGUCUGAUGAGUCUAACGGGAGACGAAACAGC | 0.0434 ± 0.0087 | 1.83 ± 0.074 | 1.38 ± 0.036 | 0.516 ± 0.021

From the supplement of paper PMC6757056
